For one substance, EC50, IC50 of enzymatic inhibition, dansylated lysine incorporation into N,N-dimethylated casein [panel B] and IC50 of enzymatic inhibition, dansylated lysine incorporation into N,N-dimethylated casein [continued), panel F] results are on record in patent publication US10005846.

In assay [1] the target is human transglutaminase type 2 (TG2) (human) (UniProt P21980). Nature of the assay: ELISA on immobilised human TG2; r2 0.9588; EC50 95% confidence range 0.06801 to 0.2396 [panel A]. (In general: In an ELISA, binding on a coated surface is turned into a signal by an enzyme label.)
Chain of human transglutaminase type 2 (TG2) (human) (P21980 whole entry): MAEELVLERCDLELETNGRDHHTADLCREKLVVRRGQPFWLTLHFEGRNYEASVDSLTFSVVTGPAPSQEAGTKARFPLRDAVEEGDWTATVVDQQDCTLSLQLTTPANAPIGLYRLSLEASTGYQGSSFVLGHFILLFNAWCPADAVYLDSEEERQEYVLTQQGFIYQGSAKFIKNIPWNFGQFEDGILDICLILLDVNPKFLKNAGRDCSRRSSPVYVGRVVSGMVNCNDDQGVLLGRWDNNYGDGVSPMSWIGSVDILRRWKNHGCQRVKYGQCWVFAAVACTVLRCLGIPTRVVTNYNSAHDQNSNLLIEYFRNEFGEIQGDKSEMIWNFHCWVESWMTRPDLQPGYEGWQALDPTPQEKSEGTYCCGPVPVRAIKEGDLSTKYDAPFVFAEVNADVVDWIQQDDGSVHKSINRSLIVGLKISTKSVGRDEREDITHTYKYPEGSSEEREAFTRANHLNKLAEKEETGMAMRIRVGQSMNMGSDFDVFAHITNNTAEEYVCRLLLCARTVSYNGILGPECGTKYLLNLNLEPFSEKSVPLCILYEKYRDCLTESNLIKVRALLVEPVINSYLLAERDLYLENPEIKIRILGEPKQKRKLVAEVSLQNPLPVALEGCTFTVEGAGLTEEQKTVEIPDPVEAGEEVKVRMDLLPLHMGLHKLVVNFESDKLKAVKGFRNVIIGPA
Assay [2] has the same target. The assay can be described thus: ELISA on immobilised human TG2; r2 0.9991; EC50 95% confidence range 0.3291 to 0.4396 [panel A].
The target of assay [3] is cynomolgus monkey TG2 (cynomolgus monkey). Nature of the assay: ELISA on immobilised cynomolgus monkey TG2; r2 0.9994; EC50 95% confidence range 0.3762 to 0.4603 [panel A].
Chain of cynomolgus monkey TG2 (cynomolgus monkey) (chain, as listed by the source): as the sequence (P21980 whole entry) above, with E4D, Q157R, N177S, H413S, I421T, Y528H, V542I counted along it
For assay [4] the target is unchanged. The assay can be described thus: ELISA on immobilised cynomolgus monkey TG2; r2 0.9586; EC50 95% confidence range 0.09303 to 0.4223 [panel A].
Assay [5] has the same target.
Assay [6] addresses human transglutaminase type 2 (TG2) (human) (UniProt P21980).

By EC50 is commonly meant the concentration giving half of the maximal effect. In the case of CUB7402 commercial anti-TG2 antibody, the EC50 in assay [1] turned out to be 0.128 nM; in assay [2], 0.38 nM; in assay [3], 0.416 nM; in assay [4], 0.198 nM. For the same substance, in assay [5], the IC50 of enzymatic inhibition, dansylated lysine incorporation into N,N-dimethylated casein [panel B] is > 100 nM. In addition, the IC50 of enzymatic inhibition, dansylated lysine incorporation into N,N-dimethylated casein [continued), panel F] in assay [6] is > 100 nM.
